Measured values taken from PMC314469, “Protein Interaction Networks by Proteome Peptide Scanning” (PLoS Biology, 2004).

T1: amphyphisin SH3 (AMPH_HUMAN), P49418
T1 chain: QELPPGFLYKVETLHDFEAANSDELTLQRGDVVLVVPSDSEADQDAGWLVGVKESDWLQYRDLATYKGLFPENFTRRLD


Experiments:
[1] = molecular target: T1, amphyphisin SH3 (AMPH_HUMAN), P49418; assay: SPOT array
[2] = molecular target: endophilin SH3 (SH3G2_HUMAN), Q99962; assay: SPOT array

normalised SPOT signal, Boehringer light units (BLU); mean over the file's lines of this peptide [1] | normalised SPOT signal, Boehringer light units (BLU); mean over the file's lines of this peptide [2] | Binder
13.3 | 504 | GLLSLRRPAPRRLE [Q9HCE9 329-342]
13.6 | 87.3 | GKPNPRRPKDKMSA [O95985 843-856]
42.4 | 295 | ALKQLDRPEKGLSE [O14646 1427-1440]
46.8 | 45.8 | GPAPLRRPDSSDDR [Q9Y687 56-69]
29.7 | 626 | GLEVPRRPGARTGP [Q9P1Z1 1-14]
116 | 687 | GIPPPKRPLKVSQK [Q9P2B8 1668-1681]
367 | 112 | GLGELLRPYRSASS [Q14526 480-493]
53.6 | 14.1 | AAMHPRRPDGFDGL [Q04197 18-31]
4080 | 526 | ALHVPAKPPRAAAA [Q8WXD9 1334-1348]
25.9 | 28.8 | GNIELKRPLIKAPS [Q9BW19 13-26]
577 | 4690 | GHTLPPKPPSPRGT [Q9HBQ2 154-168]
105 | 96.7 | GINAFARPSKMPYV [P40222 168-181]
2720 | 8700 | GKGRPDRPARRPSP [Q9ULT2 465-478]
499 | 9090 | GKVVPLRPPPPPKS [Q9UHN6 29-43]
122 | 508 | GLGSPERPPKTSPG [Q9H6F5 54-68]
2410 | 1890 | GLPAPLRPERLAPV [O94850 125-138]
34.9 | 285 | GLRRPEKPPYSYIA [Q12947 93-107]
53.1 | 864 | GIRRPEKPPYSYIA [Q12946 16-30]
27.8 | 383 | GPAGLRRPPDKQPS [Q96CI4 37-50]

The remaining lines, values behind:

Binder | normalised SPOT signal, Boehringer light units (BLU); mean over the file's lines of this peptide [1] | normalised SPOT signal, Boehringer light units (BLU); mean over the file's lines of this peptide [2]
GLSTLQRPLKDVTD [Q9H4V5 197-210] | 108 | 90.7
GNDDPRRPSRSPPS [O15085 1403-1416] | 2210 | 306
GPAGPKRPVFILGE [O60307 800-813] | 9.6 | 259
ALSHFRRPDVSVQG [Q06265 140-153] | 19.7 | 50.3
GIKSPSKPPGPNRI [Q9Y474 19-33] | 53.5 | 7270
GLWLPRRPARSVGS [Q9H427 273-286] | 8350 | 1850
GNANIQRPSRKSVN [Q9NRA6 251-264] | 3260 | 166
GKRPIKRPAYWRTE [Q9HAH2 675-688] | 3.7 | 12.8
GLSGPSRPPPPPQA [Q9UEE5 25-39] | 78.2 | 2950
GPAPPPRPPQLERH [BAC05410 275-289] | 1000 | 10700
GHRPPGRPRRSPKA [O75866 29-42] | 1010 | 172
GMEKIWRPNRVFSL [O60795 134-147] | 1120 | 175
GLGGPQKPPPHTEP [Q9H4M7 492-506] | 40.1 | 79.9
AKTPLSRPVKRNNA [O43525 89-102] | 52.6 | 149
GKNRPLRPSRRRQL [Q9H5Z2 504-517] | 7430 | 1860
GKLPPKRPELPPTL [Q9NVN2 625-638] | 30.7 | 205
GNAGPRRPPGDPST [Q9C095 222-236] | 37.1 | 75.8
GNLDIQRPKRKRKN [Q12972 185-198] | 2140 | 48.7
GKLKLKRPEQLQEV [O15082 431-444] | 32.6 | 35.2
GIPSPRRPMSNLWL [Q14031 953-966] | 76.5 | 647
GLLLLPRPGRPLDL [P13497 12-25] | 97.6 | 88.4
GKSHPKRPNSQSQH [Q9H6W1 84-97] | 45.5 | 0
GLSGLKRPSSSAST [Q9P2Q0 476-489] | 32.5 | 34.9
